The target in test [1] is CTLA4 (UniProt P16410 36-161, limits assumed). Put plainly: BLI (Octet), antigen immobilized, B-Body as analyte. The source says:
In each instance, the antigen is immobilized and the B-Body is the analyte.
Background: In BLI a coated tip is dipped into the sample, and binding shifts an interference pattern.

The target in test [2] is T1, CD3.
T1 chain: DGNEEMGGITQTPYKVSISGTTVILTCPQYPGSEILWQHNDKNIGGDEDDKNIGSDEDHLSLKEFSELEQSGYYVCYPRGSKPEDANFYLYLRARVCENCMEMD
Put plainly: BLI (Octet), two-fold serial dilution (200-12.5 nM) of the monovalent B-Body.

CTLA4, sequence (P16410 36-161 limits assumed): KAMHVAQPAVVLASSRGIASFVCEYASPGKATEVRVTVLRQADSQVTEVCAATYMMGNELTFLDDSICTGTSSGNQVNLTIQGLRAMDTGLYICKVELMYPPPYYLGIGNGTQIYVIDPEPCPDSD

B1: BC1 (bispecific antibody)
chain 1: not shown
chain 2: EVQLVESGGGLVQPGGSLRLSCAASGFTFSDYDIHWVRQAPGKGLEWVGDITPYDGTTNYADSVKGRFTISADTSKNTAYLQMNSLRAEDTAVYYCARLVGEIATGFDYWGQGTLVTVSSASPREPQVYTDPPSRDELTKNQVSLTCLVKGFYPSDIAVEWESNGQPENNYKTTPPVLDSDGSFFLYSKLTVDKSRWQQGNVFSCSVMHEALHNHYTQKSLSLSGEC
chain 3: not shown
chain 4: QVQLVESGGGVVQPGRSLRLDCKASGITFSNSGMHWVRQAPGKGLEWVAVIWYDGSKRYYADSVKGRFTISRDNSKNTLFLQMNSLRAEDTAVYYCATNDDYWGQGTLVTVSSASTKGPSVFPLAPSSKSTSGGTAALGCLVKDYFPEPVTVSWNSGALTSGVHTFPAVLQSSGLYSLSSVVTVPSSSLGTQTYICNVNHKPSNTKVDKKVEPPKSC
notes: also called bivalent bispecific B-Body BC1; bivalent 1×1 construct BC1
Consider B1, for which the binding result in test [1] is on record as “no binding”.

B2: non-mutagenized SP34-89 monovalent B-Body (bispecific antibody, V domains shown)
VH: EVQLVESGGGLVQPGGSLRLSCAASGFTFNTYAMNWVRQAPGKGLEWVARIRSKYNNYATYYADSVKGRFSISRDDSKNTAYLQMNSLRAEDTAVYYCVRHGNFGNSYVSWFAYWGQGTLVTV
VL: QAVVTQEPSLTVSPGGTVTLTCRSSTGAVTTSNYANWVQQKPGQAPRGLIGGTNKRAPWTPARFSGSLLGGKAALTITGAQAEDEADYYCALWYSNLWVFGGGTKLTVL
notes: VL and VH were cloned into one arm of a 1×1 BC1 B-Body; Constant parts as in the BC1 scaffold; also called SP34-89 VL-WT/SP34-89 VH-WT
Turning to B2, in test [2], the Kd was 23 nM, the koff amounted to 0.0071 s⁻¹ and the kon came out at 300000 M⁻¹ s⁻¹.

By Kd is commonly meant the concentration at which binding is half-saturated. What is called koff is a measure of how fast the partners let go of each other. A word on the kon: it is the rate constant with which the complex forms.
